# Data reported in patent US20230248799A1, “COMBINATION THERAPY OF SUBSTANCE-P FOR MOBILIZATION OF HEMATOPOIETIC STEM CELLS” (ELPHIS CELL THERAPEUTICS, priority 2020, published 2023).
# What was measured:
# [1] = tested on: hematopoietic stem cells in the blood; assay: Mobilization of hematopoietic stem cells by SP alone (HSC-CFU colony count of blood cells); type: in vivo; details: rabbits; for level of hematopoietic stem cells in blood on the basis of 1X on day 0: intravenous (ear vein) twice, SP 6.7 µg/kg, G-CSF 10 µg/kg
# Procedure: In order to confirm the effect of the drug administered in a normal physiological state alone, the effect of SP was tested using a normal group without wounds. This is because, in the case of injured animals, there are many other factors secreted by the wounds, and, thus, it is difficult to differentiate such factors from the effect of the administered drug, and especially because both SP and G-CSF are endogenous substances in the body.
# To confirm the effect of SP alone on mobilization of hematopoietic stem cell, five (5) rabbits were prepared for each group. SP (6.7 µg/kg, sigma Aldrich) was administered twice via Ear vein, and the levels of hematopoietic stem cells in the blood of the same animals for 3 days were compared.
# After injection of the drug, 5 ml of blood was collected once a day, put into a 15 ml tube (Falcon), and diluted twice by adding PBS (Welgene). To isolate blood cells, each of 5 ml Ficoll-Paque (Amersham) was placed in a new tube, and diluted blood was placed on top of it. The tubes were carefully handled so as not to mix the Ficoll layer and blood layer, and, after the blood layers were completely put in the tubes, centrifugation (813 g, Megafuge 8R, Thermo Scientific) was performed for 20 minutes. After centrifugation, the layers were separated, resulting in a total of four layers. The uppermost layer was plasma, the second layer was the blood cell layer excluding erythrocytes, the third layer was Ficoll, and the bottom layer was the erythrocyte layer. Among them, only the blood cell layer was separated and put into a tube, and PBS was then added thereto to centrifuge same. 5×10^6 blood cells were placed in a 35 mm plate and cultured in HSC-CFU media (Hematopoietic stem cells-colony forming unit media, purchased from Miltenyi). While the cells were cultured in the initial state for 2 weeks without exchanging the media, the number of colonies was observed every day and finally counted.
# [2] = tested on: immune cells in the blood; assay: Effect of SP on blood immune cells (CBC count, percentages in total leukocytes); details: rabbits, G-CSF 10 µg/kg intravenous twice; day 2
# Procedure: To confirm the effect of SP on the percentage of immune cells in blood, five (5) rabbits were prepared for each group. After administering SP (6.7 µg/kg) via ear vein twice, the percentages of immune cells in the blood of the same animals were compared for 3 days. G-CSF (10 µg/kg, JW Pham) was used at a conventional clinical dose and treated with the same regimen as that of SP (i.e., intravenous administration). After the administration, 1 ml of the blood was collected at one-day intervals, transferred to a tube containing EDTA and analyzed by using a diagnostic device.
molecule,measurement,setting,value
"G-CSF: recombinant granulocyte colony stimulating factor, a glycoprotein stimulating neutrophil progenitor cells and mature neutrophils (protein, UniProt P09919 31-207, looked up) Granulocyte …: TPLGPASSLPQSFLLKCLEQVRKIQGDGAALQEKLVSECATYKLCHPEELVLLGHSLGIPWAPLSSCPSQALQLAGCLSQLHSGLFLYQGLLQALEGISPELGPTLDTLQLDVADFATTIWQQMEELGMAPALQPTQGAMPAFASAFQRRAGGVLVASHLQSFLEVSYRVLRHLAQP",level of hematopoietic stem cells in blood on the basis of 1X on day 0,[1]; day 1,2 X
same,level of hematopoietic stem cells in blood on the basis of 1X on day 0,[1]; day 2,2.5 X
same,level of hematopoietic stem cells in blood on the basis of 1X on day 0,[1]; day 3,0.6 X
same,effect on mobilization of hematopoietic stem cells (in words),"[1]; intravenous twice, followed for 3 days, FIG. 1",negligible effect on mobilization of hematopoietic stem cells
same,increase of the percentage of neutrophils in the blood,[2],about 65%
